The target in one test is HLA-A0201 (human). Put plainly: competition vs labelled reference peptide.
The next test has as its target HLA-A0101 (human). Put plainly: competition vs labelled reference peptide.
The next test has as its target HLA-A2402 (human). The test can be described thus: competition vs labelled reference peptide.
Another test has as its target HLA-B0702 (human). The test can be described thus: competition vs labelled reference peptide.
Another test deals with HLA-B*0702 (human). Put plainly: competition binding assay, purified HLA, labelled probe peptide.
[1] abbreviates: remark: other sources report otherwise.

Read-outs that look alike come from different tables or passages of the source.

Take KVLVLNPSV (modifications not checked): the inhibition constant Ki with HLA-A0201 (human) came to 50 nM.
In turn, MGSSYGFQY (modifications not checked) came in with a Ki with HLA-A0101 (human) (setting [1]) of 1020 nM.
In turn, TWAQPGYPW (modifications not checked) displayed a Ki in the test with HLA-A2402 (human) of 8 nM.
On to KSTKVPAAY (modifications not checked), for which the Ki in the test with HLA-A0101 (human) (setting [1]) was 950 nM.
With NLPGCSFSI (modifications not checked), the results for the Ki with HLA-A0201 (human) (setting [1]) and in the test with HLA-A2402 (human) (setting [1]) were 83 nM and 8 nM, respectively.
YYRGLDVSVI (modifications not checked): in the test with HLA-A2402 (human), the Ki was determined as 437 nM.
The molecule GLGWAGWLL (modifications not checked) showed a Ki with HLA-A2402 (human) of 68 nM.
In the test with HLA-A0201 (human), CLVDYPYRL (modifications not checked) registered a Ki of 437 nM.
In the test with HLA-A0201 (human), YQATVCARA (modifications not checked) came in with a Ki of 20 nM.
In the test with HLA-B0702 (human), AARALAHGV (modifications not checked) showed a Ki of 209 nM.
The molecule RLYIGGPLT (modifications not checked) registered a Ki in the test with HLA-A0201 (human) of 845 nM.
In the test with HLA-A2402 (human), TLWARMILM (modifications not checked) came in with an inhibition constant (Ki) of 2640 nM.
LTCGFADLM (modifications not checked) had a Ki in the test with HLA-A0101 (human) of 3550 nM.
In the test with HLA-B*0702 (human), LPRRGPRLG (modifications not checked) yielded an IC50 of 124 nM.
For SMVGNWAKV (modifications not checked), the Ki with HLA-A0201 (human) was 158 nM.
As for FTDNSSPPA (modifications not checked), the Ki with HLA-A0101 (human) is 10 nM.
The molecule AVMGSSYGF (modifications not checked) yielded a Ki with HLA-A2402 (human) (setting [1]) of 10 nM.
As to GLTHIDAHF (modifications not checked), the Ki with HLA-A2402 (human) worked out at 10 nM.
In the case of PFYGKAIPI (modifications not checked), the inhibition constant (Ki) with HLA-A2402 (human) is 4 nM.
In the case of FTEAMTRYS (modifications not checked), the Ki in the test with HLA-A0101 (human) was found to be 6610 nM.
For QIVGGVYLL (modifications not checked), the Ki in the test with HLA-A0201 (human) was 228 nM.
The molecule VIDTLTCGF (modifications not checked) came in with a Ki with HLA-A0101 (human) of 1130 nM.
Regarding VMGSSYGF (modifications not checked), the Ki with HLA-A2402 (human) (setting [1]) turned out to be 33 nM.
As to MALYDVVST (modifications not checked), in the test with HLA-A0201 (human), the Ki is 1140 nM.
Take AAKLSALGL (modifications not checked): in the test with HLA-B0702 (human), the Ki amounted to 277 nM. This molecule also registered an IC50 with HLA-B*0702 (human) of 277 nM.
The molecule YLFNWAVRT (modifications not checked) yielded a Ki with HLA-A0201 (human) of 29 nM.
GMFDSSVLC (modifications not checked) yielded a Ki in the test with HLA-A0201 (human) of 71 nM.
In the test with HLA-A0101 (human), LADGGCSGGAY (modifications not checked) showed a Ki of 60 nM.
In the test with HLA-A0201 (human) (setting [1]), IMAKNEVFCV (modifications not checked) yielded a Ki of 199 nM.
LVDILAGYGA (modifications not checked) had a Ki in the test with HLA-A0101 (human) of 419 nM.
For PAAYAAQGY (modifications not checked), the Ki with HLA-A0101 (human) was 1610 nM.
NIIMYAPTL (modifications not checked) came in with a Ki in the test with HLA-A0201 (human) of 70 nM.
IMACMSADL (modifications not checked) showed a Ki in the test with HLA-A0201 (human) (setting [1]) of 66 nM.
In the test with HLA-A0201 (human), AQPGYPWPL (modifications not checked) showed a Ki of 382 nM.
In the test with HLA-A0201 (human) (setting [1]), WLGNIIMYA (modifications not checked) gave a Ki of 33 nM.
In the test with HLA-A0201 (human), FIPVESMET (modifications not checked) returned a Ki of 934 nM.
FLLALLSCLT (modifications not checked): the inhibition constant Ki with HLA-A0201 (human) worked out at 132 nM.
PAVPQTFQV (modifications not checked): the Ki with HLA-A2402 (human) turned out to be 991 nM.
For the molecule LYGNEGLGW (modifications not checked), the inhibitory constant (Ki) with HLA-A2402 (human) came out at 5 nM.
Consider APLGGAARA (modifications not checked), for which, in the test with HLA-B0702 (human), the Ki was determined as 115 nM. This molecule also yielded an IC50 in the test with HLA-B*0702 (human) of 115 nM.
ALAHGVRVL (modifications not checked): the Ki came to 674 nM with HLA-A0201 (human) (setting [1]) and 7950 nM with HLA-B0702 (human) (setting [1]).
In the case of ATLGFGAYM (modifications not checked), the Ki with HLA-B0702 (human) turned out to be 13000 nM.
For YIPLVGAPL (modifications not checked), the Ki with HLA-A0201 (human) (setting [1]) is 337 nM.
For the molecule CYDAGCAWY (modifications not checked), the Ki with HLA-A0101 (human) (setting [1]) is above 20000 nM.
As for FWAKHMWNF (modifications not checked), the Ki in the test with HLA-A2402 (human) came to 2 nM.
As for LVLNPSVAA (modifications not checked), the Ki in the test with HLA-A0201 (human) amounted to 2880 nM.
Consider DLCGSVFLV (modifications not checked), for which, in the test with HLA-A0201 (human) (setting [1]), the Ki is 789 nM.
TYSTYGKF (modifications not checked) returned an inhibition constant (Ki) with HLA-A2402 (human) of 192 nM.
SWDQMWKCL (modifications not checked) yielded a Ki with HLA-A2402 (human) (setting [1]) of 670 nM.
As to PLLLLLLAL (modifications not checked), in the test with HLA-A0201 (human), the Ki amounted to 6550 nM.
On to SVFTGLTHI (modifications not checked), for which the Ki with HLA-A0201 (human) (setting [1]) is 101 nM.

Source of the values: patent EP1652858A1.
